According to patent US20140315253A1:

Target: type I collagen (collagen membrane or collagen gel)
Assay: modified ELISA on type I collagen membrane (6.0 mg), Kd calculated by Matsushita's method

Substance	Kd
CBD-NGF, histidine-affinity tagged fusion protein comprising the collagen binding domain and beta-NGF mature peptide	510 nM
NAT-NGF, beta-NGF mature peptide with the histidine-affinity tag (ligand)	1500 nM
